Data reported in patent US20260108617A1, “AUTO-TUNING DRUG REGULATOR CONSTRUCTIONS” (priority 2023, published 2026).

Experiments:
[1] = Cell uptake by imaging of conjugated dancyl fluorophore; format: cell-based; details: data not shown
Text: Compound 9 was shown efficacious in these experiments.

[2] = molecular target: recombinant prostasin enzyme (Homo sapiens, UniProt Q16651); assay: Incubation with recombinant prostasin enzyme, LC/MS analysis of incapacitation byproduct; format: biochemical
Chain of recombinant prostasin enzyme (Q16651 33-343, species assumed): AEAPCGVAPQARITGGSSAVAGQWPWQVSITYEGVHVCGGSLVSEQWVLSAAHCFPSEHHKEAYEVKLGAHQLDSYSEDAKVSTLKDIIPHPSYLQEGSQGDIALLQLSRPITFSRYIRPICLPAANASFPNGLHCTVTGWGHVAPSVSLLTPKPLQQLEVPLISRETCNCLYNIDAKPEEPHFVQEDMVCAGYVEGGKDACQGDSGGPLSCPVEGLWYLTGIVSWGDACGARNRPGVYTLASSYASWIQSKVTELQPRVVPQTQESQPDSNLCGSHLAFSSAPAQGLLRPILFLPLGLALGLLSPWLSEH
Description: This is not observed in absence of the enzyme incubation.
Then in FIG. 10, incubation of the drug alone with the prostasin enzyme can be analyzed by LC/MS for the byproduct of incapacitation (the alkylation of the decoy yielding a 1-methylpiperazine-one).
The drug could be tested in similar ways as the other compounds.
The strategy of this example can be generalized for any peptide based PROTAC for TrkA or any other target.

Sequence | cell uptake [1] | incapacitation byproduct seen by LC/MS ([2]; absence of the enzyme incubation) | incapacitation byproduct seen by LC/MS ([2]; incubated with recombinant prostasin enzyme)
RRARRPRGRQAR | demonstrated for cell uptake |  | 
LFLGQARGGRRRRPPP |  | not observed | independent activator byproduct
